From US20190175744A1 (Merck Sharp & Dohme, published 2019)
Starred links: 1 amine or outer side, 2 acyl side, 3 side chain; linkers in the order of their positions; H or OH if unused. Non-standard residues stand in square brackets, D forms with d. Groups on a side chain read outwards from the residue. No end group written: not given here. *: point of attachment. C16N3 = 16-azido-hexadecanoic acid, [N-]=[N+]=NCCCCCCCCCCCCCCCC(=O)*; C20 diacid = O=C(O)CCCCCCCCCCCCCCCCCCC(=O)*; C18 diacid = O=C(O)CCCCCCCCCCCCCCCCC(=O)*; Lys(N3) = [N-]=[N+]=NCCCC[C@H](N)C(=O)O; γGlu = O=C(O)[C@H](CCC(=O)[*:2])N[*:1]; Met(O2) = CS(=O)(=O)CC[C@H](N)C(=O)O; AEEA = NCCOCCOCC(=O)O; Aib = CC(C)(N)C(=O)O

How the values were obtained:
Experiment in all cases: cell-based or functional assay
[1] = target: human glucagon receptor (human, UniProt P47871 26-477)
[2] = target: human GLP-1 receptor (human, UniProt P43220 24-463)
[3] = target: human Glucagon receptor (GCGR) (human, UniProt P47871 26-477)
[4] = target: human GLP-1 receptor (GLP1R) (human, UniProt P43220 24-463)

Row | Binder | hGCGR_EC50 (cAMP activity assay) [1] [nM] | hGLP1R EC50 (cAMP activity assay) [2] [nM] | Incretin Receptor Assay (cAMP) EC50, GCGR (Human) [3] [nM] | Incretin Receptor Assay (cAMP) EC50, GLP1R (Human) [4] [nM]
1 | HXQGTFTSDKSKYLDERAAQDFVXWXXDT (D-Ser (s) at 2; Lys 10 K(γEγEC16); Nle(εN3) at 24; alpha-methyl-L-Leu (αML) at 26; L-methionine sulphone (2) at 27; C-terminal amide) [PEP37] | 0.06 | 0.04 |  | 
2 | HXQGTFTSDKSKYLDERAAQDFVXWLLDT (D-Ser (s) at 2; Nle(εN3) at 24; C-terminal amide) [PEP69] | 0.31 | 0.16 |  | 
3 | H[Aib]QGTFTSDYSKYLD[Aib]RAAQDFVQWLLDTKK([AEEA-AEEA-γGlu-C16N3])-NH2 (N-terminus assumed; SMILES CC(C)C[C@H](NC(=O)[C@H](Cc1c[nH]c2ccccc12)NC(=O)[C@H](CCC(N)=O)NC(=O)[C@@H](NC(=O)[C@H](Cc1ccccc1)NC(=O)[C@H](CC(=O)O)NC(=O)[C@H](CCC(N)=O)NC(=O)[C@H](C)NC(=O)[C@H](C)NC(=O)[C@H](CCCNC(=N)N)NC(=O)C(C)(C)NC(=O)[C@H](CC(=O)O)NC(=O)[C@H](CC(C)C)NC(=O)[C@H](Cc1ccc(O)cc1)NC(=O)[C@H](CCCCN)NC(=O)[C@H](CO)NC(=O)[C@H](Cc1ccc(O)cc1)NC(=O)[C@H](CC(=O)O)NC(=O)[C@H](CO)NC(=O)[C@@H](NC(=O)[C@H](Cc1ccccc1)NC(=O)[C@@H](NC(=O)CNC(=O)[C@H](CCC(N)=O)NC(=O)C(C)(C)NC(=O)[C@@H](N)Cc1c[nH]cn1)[C@@H](C)O)[C@@H](C)O)C(C)C)C(=O)N[C@@H](CC(C)C)C(=O)N[C@@H](CC(=O)O)C(=O)N[C@H](C(=O)N[C@@H](CCCCN)C(=O)N[C@@H](CCCCNC(=O)COCCOCCNC(=O)COCCOCCNC(=O)CC[C@H](NC(=O)CCCCCCCCCCCCCCCN=[N+]=[N-])C(=O)O)C(N)=O)[C@@H](C)O) [PEP28] | 0.17 | 0.16 |  | 
4 | H[dS]QGTFTSDK([γGlu-γGlu-C16])SKYLDERAAQDFVQWLLDT-NH2 [Control molecule PEP76 (Table 7)] |  |  | 0.009 | 0.007
5 | H[Aib]QGTFTSDYSKYLDARAAK([AEEA-AEEA-γGlu-C18 diacid])DFV[Lys(N3)]WL[Met(O2)]DT-NH2 [PEP30] | 2.27 | 0.5 |  | 
6 | H[dS]QGTFTSDKSKYLDERAA[Lys(N3)]DFVQWLLDT-NH2 [PEP71] | 0.12 | 0.06 |  | 
7 | H[Aib]QGTFTSDYSKYLDARAAK([AEEA-AEEA-γGlu-C20 diacid])DFV[Lys(N3)]WL[Met(O2)]DT-NH2 (N-terminus assumed; SMILES CC(C)C[C@H](NC(=O)[C@H](Cc1ccc(O)cc1)NC(=O)[C@H](CCCCN)NC(=O)[C@H](CO)NC(=O)[C@H](Cc1ccc(O)cc1)NC(=O)[C@H](CC(=O)O)NC(=O)[C@H](CO)NC(=O)[C@@H](NC(=O)[C@H](Cc1ccccc1)NC(=O)[C@@H](NC(=O)CNC(=O)[C@H](CCC(N)=O)NC(=O)C(C)(C)NC(=O)[C@@H](N)Cc1c[nH]cn1)[C@@H](C)O)[C@@H](C)O)C(=O)N[C@@H](CC(=O)O)C(=O)N[C@@H](C)C(=O)N[C@@H](CCCNC(=N)N)C(=O)N[C@@H](C)C(=O)N[C@@H](C)C(=O)N[C@@H](CCCCNC(=O)COCCOCCNC(=O)COCCOCCNC(=O)CC[C@H](NC(=O)CCCCCCCCCCCCCCCCCCC(=O)O)C(=O)O)C(=O)N[C@@H](CC(=O)O)C(=O)N[C@@H](Cc1ccccc1)C(=O)N[C@H](C(=O)N[C@@H](CCCCN=[N+]=[N-])C(=O)N[C@@H](Cc1c[nH]c2ccccc12)C(=O)N[C@@H](CC(C)C)C(=O)N[C@@H](CCS(C)(=O)=O)C(=O)N[C@@H](CC(=O)O)C(=O)N[C@H](C(N)=O)[C@@H](C)O)C(C)C) [PEP31] | 4.24 | 1.38 |  | 
8 | H[dS]QGTFTSDYSKYLDERAAQK([AEEA-AEEA-γGlu-C16N3])FVQWLLDT-NH2 (N-terminus assumed; SMILES CC(C)C[C@H](NC(=O)[C@H](Cc1ccc(O)cc1)NC(=O)[C@H](CCCCN)NC(=O)[C@H](CO)NC(=O)[C@H](Cc1ccc(O)cc1)NC(=O)[C@H](CC(=O)O)NC(=O)[C@H](CO)NC(=O)[C@@H](NC(=O)[C@H](Cc1ccccc1)NC(=O)[C@@H](NC(=O)CNC(=O)[C@H](CCC(N)=O)NC(=O)[C@@H](CO)NC(=O)[C@@H](N)Cc1c[nH]cn1)[C@@H](C)O)[C@@H](C)O)C(=O)N[C@@H](CC(=O)O)C(=O)N[C@@H](CCC(=O)O)C(=O)N[C@@H](CCCNC(=N)N)C(=O)N[C@@H](C)C(=O)N[C@@H](C)C(=O)N[C@@H](CCC(N)=O)C(=O)N[C@@H](CCCCNC(=O)COCCOCCNC(=O)COCCOCCNC(=O)CC[C@H](NC(=O)CCCCCCCCCCCCCCCN=[N+]=[N-])C(=O)O)C(=O)N[C@@H](Cc1ccccc1)C(=O)N[C@H](C(=O)N[C@@H](CCC(N)=O)C(=O)N[C@@H](Cc1c[nH]c2ccccc12)C(=O)N[C@@H](CC(C)C)C(=O)N[C@@H](CC(C)C)C(=O)N[C@@H](CC(=O)O)C(=O)N[C@H](C(N)=O)[C@@H](C)O)C(C)C) [PEP27] | 0.39 | 0.06 |  | 
9 | HXQGTFTSDKSKYLDERAAQDFVXWLLDT (D-Ser (s) at 2; Lys 10 K(PEG2PEG2γEC18-OH); Nle(εN3) at 24; C-terminal amide) [PEP29] | 3.26 | 3.28 |  | 
10 | HXQGTFTSDKSKYLDERAAQDFVXWLLDT (HsQGTFTSDK(γEγEC16)…le(ϵN3)WLLDT-NH2 (s=D-serine; K(γEγEC16) at 10; Nle(ϵN3)=azidonorleucine at 24; NH2=C-terminal amide)) [PEP74] |  |  |  | 0.05
11 | HXQGTFTSDKSKYLDERAAQDXVXWLXDT (D-Ser (s) at 2; Lys 10 K(γEγEC16); alpha-methyl-L-Phe (αMF) at 22; Nle(εN3) at 24; L-methionine sulphone (2) at 27; C-terminal amide) [PEP35] | 0.05 | 0.05 |  | 
12 | HXEGTFTSDKSKYLDERAAQDFVXWLLDT (D-Ser (s) at 2; Lys 10 K(γEγEC16); Nle(εN3) at 24; C-terminal amide) [PEP75] | > 5 | 0.07 |  | 
13 | HXQGTFTSDKSKYLDERAAQXFVXWLXDT (D-Ser (s) at 2; Lys 10 K(γEγEC16); alpha-methyl-L-Asp (αMD) at 21; Nle(εN3) at 24; L-methionine sulphone (2) at 27; C-terminal amide) [PEP34] | 0.05 | 0.05 |  | 
14 | HXQGTFTSXKSKYLDERAAQDFVXWLXDT (D-Ser (s) at 2; alpha-methyl-L-Asp (αMD) at 9; Lys 10 K(γEγEC16); Nle(εN3) at 24; L-methionine sulphone (2) at 27; C-terminal amide) [PEP32] | 0.06 | 0.04 |  | 
